Measurements published in patent US20260209334A1 (MAX PLANCK GESELLSCHAFT ZUR F RDERUNG DER WISSENSCHAFTEN E V, published 2026).
Read-outs that look alike come from different tables or passages of the source. Values belong to the binder of their own block, whether it stands above or below them.

Key:
[1] = molecular target: T1, human IL-17A/F heterodimer, bacterially expressed construct (human, UniProt Q16552 40-155; Q96PD4 39-163, limits assumed); assay: BLI, VHH immobilized, IL-17 as analyte; apparent KD with avidity; µM as printed (Table 3 uses pM)
T1 construct: IL-17A unit with N68D, IL-17F unit with N83D and C137S, both with GSEDS spacer; already in the entries

[2] = molecular target: T2, human IL-17A homodimer, bacterially expressed construct (residues 40-155 with GSEDS spacer) (human, UniProt Q16552 40-155); assay: as above
T2 chain: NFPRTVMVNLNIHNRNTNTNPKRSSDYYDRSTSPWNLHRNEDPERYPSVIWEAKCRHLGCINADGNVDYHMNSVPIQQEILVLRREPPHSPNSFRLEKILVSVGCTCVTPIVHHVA

[3] = molecular target: T3, human IL-17F homodimer, bacterially expressed construct (residues 39-163 with GSEGE linker) (human, UniProt Q96PD4 39-163); assay: as above
T3 construct: also called IL-17F dimer
T3 chain: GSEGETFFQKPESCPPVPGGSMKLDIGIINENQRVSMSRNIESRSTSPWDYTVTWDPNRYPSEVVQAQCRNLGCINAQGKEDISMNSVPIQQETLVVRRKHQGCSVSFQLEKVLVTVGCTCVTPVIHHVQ

[4] = molecular target: T1, human IL-17A/F heterodimer, bacterially …; assay: BLI, biotinylated VHH immobilized on streptavidin sensors, IL-17 as analyte (10, 20, 40 nM), mass transport fit; apparent value, avidity possible
[5] = molecular target: T2, human IL-17A homodimer, bacterially …; assay: as above
[6] = molecular target: T3, human IL-17F homodimer, bacterially …; assay: as above
[7] = molecular target: T1, human IL-17A/F heterodimer, bacterially …; assay: as above; remark: listed apart in the source
[8] = molecular target: T2, human IL-17A homodimer, bacterially …; assay: as above
[9] = molecular target: T3, human IL-17F homodimer, bacterially …; assay: as above
[10] = molecular target: T4, human IL-17A with C-terminal Avi-tag, biotinylated, immobilized on BLI sensors (human, UniProt Q16552 24-155, biotin on the C-terminal Avi-tag (BirA)); assay: BLI, biotinylated IL-17A immobilized on streptavidin sensors, monovalent VHH as analyte (25, 50, 100 nM), 2:1 heterogenous fit, high affinity component
T4 construct: also called biotinylated IL-17A; not shown: C-terminal Avi-tag

[11] = molecular target: T5, human IL-17F with C-terminal Avi-tag, biotinylated, immobilized on BLI sensors (human, UniProt Q96PD4 31-163, biotin on the C-terminal Avi-tag (BirA)); assay: BLI, biotinylated IL-17F immobilized, monovalent VHH as analyte; 2:1 heterogenous model, high affinity component
T5 construct: also called biotinylated IL-17F; not shown: C-terminal Avi-tag
T5 sequence: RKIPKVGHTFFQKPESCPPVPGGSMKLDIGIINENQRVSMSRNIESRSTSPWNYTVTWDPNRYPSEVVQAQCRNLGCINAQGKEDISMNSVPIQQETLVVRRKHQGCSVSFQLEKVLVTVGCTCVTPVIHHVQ

[12] = molecular target: T4, human IL-17A with C-terminal Avi-tag, …; assay: BLI, biotinylated IL-17A immobilized, monovalent VHH as analyte; 2:1 heterogenous model, high affinity component
[13] = molecular target: T5, human IL-17F with C-terminal Avi-tag, …; assay: BLI, biotinylated IL-17F immobilized on streptavidin sensors, monovalent VHH as analyte (20, 100 nM), 2:1 heterogenous fit, low affinity component
[14] = molecular target: recombinant human IL-17A/F (produced in CHO cells, R&D Systems 5837-IL) (human, UniProt Q16552 24-155; Q96PD4 31-163, limits assumed); assay: cell-based or functional assay
Chain of recombinant human IL-17A/F (produced in CHO cells, R&D Systems 5837-IL) (Q16552 24-155 limits assumed, chain 1 of 2, one chain of several): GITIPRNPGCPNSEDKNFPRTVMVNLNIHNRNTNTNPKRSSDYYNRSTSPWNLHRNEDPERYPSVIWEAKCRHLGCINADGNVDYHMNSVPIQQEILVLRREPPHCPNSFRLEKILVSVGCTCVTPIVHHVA

[15] = molecular target: T6, recombinant human IL-17F (produced in HEK cells, Proteintech HZ-1116) (human, UniProt Q96PD4 31-163); assay: cell-based or functional assay
T6 sequence (looked up): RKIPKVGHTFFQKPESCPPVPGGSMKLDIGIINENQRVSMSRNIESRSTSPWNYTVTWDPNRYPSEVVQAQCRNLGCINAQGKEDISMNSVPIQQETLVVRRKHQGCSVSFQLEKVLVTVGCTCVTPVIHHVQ

[16] = molecular target: T7, recombinant human IL-17A (produced in HEK cells, Proteintech HZ-1113) (human, UniProt Q16552 24-155); assay: cell-based or functional assay
[17] = molecular target: T4, human IL-17A with C-terminal Avi-tag, …; assay: BLI, biotinylated IL-17A immobilized on streptavidin sensors, monovalent VHH as analyte (20, 100 nM), 2:1 heterogenous fit, low affinity component
[18] = molecular target: T6, recombinant human IL-17F (produced in …); assay: cell-based or functional assay; remark: listed apart in the source
[19] = molecular target: T4, human IL-17A with C-terminal Avi-tag, …; assay: BLI, biotinylated IL-17A immobilized on streptavidin sensors, monovalent VHH as analyte (25, 50, 100 nM), mass transport fit
[20] = molecular target: T4, human IL-17A with C-terminal Avi-tag, …; assay: BLI, biotinylated IL-17A immobilized, monovalent VHH as analyte
[21] = molecular target: T7, recombinant human IL-17A (produced in …); assay: cell-based or functional assay; remark: listed apart in the source
[22] = molecular target: T5, human IL-17F with C-terminal Avi-tag, …; assay: BLI, biotinylated IL-17F immobilized, monovalent VHH as analyte

B1: Bm18B05 with C-terminal Avi-Biotin-tag, biotinylated (VHH)
VHH: QVQLVESGGGLVQPGGSLRLSCAVSGRTFSSYAMGWFRRPPGKEREFVAAISWSGGDTKYADFVTDRFTISRDDAKSTVYLQMNSLKPEDTAVYYCNDMPYGLDTRMDEYEYWGQGTQVTVSS
modifications: biotin on the C-terminal Avi-tag (BirA)
notes: not shown: C-terminal Avi-Biotin-tag
Kd [1]: ≤ 20000 nM
Kd [2]: ≤ 20000 nM
Kd [3]: ≤ 20000 nM
Kd [4]: ≤ 0.01 nM
koff [4]: ≤ 1e-07 s⁻¹
kon [4]: 120000 M⁻¹ s⁻¹
Kd [5]: ≤ 0.01 nM
koff [5]: ≤ 1e-07 s⁻¹
kon [5]: 260000 M⁻¹ s⁻¹
Kd [6]: ≤ 0.01 nM
koff [6]: ≤ 1e-07 s⁻¹
kon [6]: 86000 M⁻¹ s⁻¹

B2: Bm17B02 with C-terminal Avi-Biotin-tag, biotinylated (VHH)
VHH: QVQLVESGGGLVNTGGSLRLSCVVSGHTSEISAMGWYRQAPGKQRELVALITSRSGDTHYSDSVKGRFSISRDNAKNTMYLQMNSLNPDDTAVYYCVHNEPGHLYMAQGTQVTVSS
modifications: biotin on the C-terminal Avi-tag (BirA)
notes: as for B1
Kd [1]: ≤ 20000 nM
Kd [2]: ≤ 20000 nM
Kd [3]: ≤ 20000 nM
Kd [7]: ≤ 0.01 nM
koff [7]: ≤ 1e-07 s⁻¹
kon [7]: 1.4e+06 M⁻¹ s⁻¹
Kd [8]: ≤ 0.01 nM
koff [8]: ≤ 1e-07 s⁻¹
kon [8]: 220000 M⁻¹ s⁻¹
Kd [9]: 0.02 nM
koff [9]: 5.4e-05 s⁻¹
kon [9]: 750000 M⁻¹ s⁻¹

B3: Bm17B02 (VHH)
VHH: QVQLVESGGGLVNTGGSLRLSCVVSGHTSEISAMGWYRQAPGKQRELVALITSRSGDTHYSDSVKGRFSISRDNAKNTMYLQMNSLNPDDTAVYYCVHNEPGHLYMAQGTQVTVSS
notes: Class B, first generation; For the crystal it was made with a His14-ScSUMO tag that was cleaved off
Kd [10]: 0.7 nM

B5: Bm44B04 (VHH)
VHH: QVQLVESGGGLVRTGGSLRLSCSVSGDISSQSAMGWYRQVPGRQRELVAMIHTTKGDTYYADSVKGRFTISRINANNTIYLQMNNLKPEDTAIYYCTHNEPGDLYMGQGTQVTVSS
notes: Class B, second generation
Kd [11]: 0.35 nM
Kd [12]: 0.6 nM
KD2 [13]: 20 nM
Neutralization potency, ranking from 1 = the best to 4 (HEK-Blue IL-17 reporter cells) [14]: 1 rank
Neutralization potency, ranking from 1 = the best to 4 (HEK-Blue IL-17 reporter cells) [15]: 2 rank
Neutralization potency, ranking from 1 = the best to 4 (HEK-Blue IL-17 reporter cells) [16]: 2 rank
KD2 [17]: 25 nM

B9: Bm44C09 (VHH)
VHH: QVQLVESGGGLVQAGGSLRLSCAASGLAVSSYAMGWFRQAPGKEREFVAAISWISGGTKYADSVKDRFTMSRDNAKKQVYLEMNSLKPEDTAVYYCNDMPYGLDTRMDDYKYWGQGIQVTVSS
notes: Class A, second generation
Kd [20]: 2 nM
IC50 (read off the curve), SEAP reporter, HEK-Blue IL-17 cells, 0.17 nM IL-17A [21]: ~2 nM
Neutralization potency, ranking from 1 = the best to 4 (HEK-Blue IL-17 reporter cells) [14]: 1 rank
Neutralization potency, ranking from 1 = the best to 4 (HEK-Blue IL-17 reporter cells) [15]: 1 rank
Neutralization potency, ranking from 1 = the best to 4 (HEK-Blue IL-17 reporter cells) [16]: 4 rank
Kd [22]: 0.1 nM

Continued, values first:

Kd [1]: ≤ 20000 nM
Kd [2]: ≤ 20000 nM
Kd [3]: ≤ 20000 nM
Kd [7]: ≤ 0.01 nM
koff [7]: ≤ 1e-07 s⁻¹
kon [7]: 510000 M⁻¹ s⁻¹
Kd [8]: ≤ 0.01 nM
koff [8]: ≤ 1e-07 s⁻¹
kon [8]: 160000 M⁻¹ s⁻¹
Kd [9]: 0.02 nM
koff [9]: ≤ 1e-07 s⁻¹
kon [9]: 500000 M⁻¹ s⁻¹
B4: Re42F08 with C-terminal Avi-Biotin-tag, biotinylated (VHH)
VHH: QVQLVESGGGLVKAGGSLRLSCVVSGHTSEISAMGWYRQAPGKQRELVALITSRSGDTHYSDSVKGRFSISRDNAKNTMYLQMNSLNPDDTAVYYCVHNEPGHLYMAQGTQVTVSS
modifications: biotin on the C-terminal Avi-tag (BirA)
notes: as for B1

Kd [11]: 1 nM
Kd [12]: 3 nM
KD2 [13]: 40 nM
Neutralization potency, ranking from 1 = the best to 4 (HEK-Blue IL-17 reporter cells) [14]: 4 rank
Neutralization potency, ranking from 1 = the best to 4 (HEK-Blue IL-17 reporter cells) [15]: 1 rank
Neutralization potency, ranking from 1 = the best to 4 (HEK-Blue IL-17 reporter cells) [16]: 3 rank
KD2 [17]: 120 nM
B6: Bm44G07 (VHH)
VHH: QVQLVQSGGGLVQTGGSLRLSCSVSGDISSQSAMGWYRQVPGRQRELVAMIHTTKGDTYYADSVKDRFTISRINANNTIHLQMNNLKPEDTAIYYCTHNEPGDLYMGQGTQVTVSS
notes: Class B, second generation

IC50 (read off the curve), SEAP reporter, HEK-Blue IL-17 cells, 0.85 nM IL-17F [18]: ~5 nM
Kd [19]: 1 nM
B7: Bm18F11 (VHH)
VHH: QVQLVESGGDLVQAGGSLRLSCAASGLTGSSYAMGWFRQAPGKEREFVAAISWISGDTKYTDSVKGRFTMSRDNAKKQVYLEMNSLKPEDTAVYYCNDMPYGLDTRMDEYVYWGQGTQVTVSS
notes: Class A, first generation

Kd [1]: ≤ 20000 nM
Kd [2]: ≤ 20000 nM
Kd [3]: ≤ 20000 nM
Kd [4]: ≤ 0.01 nM
koff [4]: ≤ 1e-07 s⁻¹
kon [4]: 280000 M⁻¹ s⁻¹
Kd [5]: ≤ 0.01 nM
koff [5]: ≤ 1e-07 s⁻¹
kon [5]: 95000 M⁻¹ s⁻¹
Kd [6]: ≤ 0.01 nM
koff [6]: ≤ 1e-07 s⁻¹
kon [6]: 150000 M⁻¹ s⁻¹
B8: Bm18F11 with C-terminal Avi-Biotin-tag, biotinylated (VHH)
VHH: QVQLVESGGDLVQAGGSLRLSCAASGLTGSSYAMGWFRQAPGKEREFVAAISWISGDTKYTDSVKGRFTMSRDNAKKQVYLEMNSLKPEDTAVYYCNDMPYGLDTRMDEYVYWGQGTQVTVSS
modifications: biotin on the C-terminal Avi-tag (BirA)
notes: as for B1
